The target of the data set is T1, HSV2.
T1 chain: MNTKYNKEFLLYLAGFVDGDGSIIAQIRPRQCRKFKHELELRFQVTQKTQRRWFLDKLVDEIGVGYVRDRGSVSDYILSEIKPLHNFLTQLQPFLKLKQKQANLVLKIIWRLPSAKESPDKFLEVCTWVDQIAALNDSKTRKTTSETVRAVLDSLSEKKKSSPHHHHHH

Residue numbers refer to the chain shown, from its start.

B1: HSV1 (protein)
chain: T1 chain with R28K, C32S, R33C, E40R, R42Q
Consider B1, for which the “cleavage of a linearized DNA substrate with the intended non-palindromic recognition sequence (SEQ ID NO: 28, HSV UL36 gene) by the 1:1 mixture” value was “each rationally-designed meganuclease heterodimer cleaves its intended DNA site”.
